# Test results: IntAct's records for PubMed 31515488
# B1: Ribonuclease inhibitor (Homo sapiens), P13489 (parent)
# chain: MSLDIQSLDIQCEELSDARWAELLPLLQQCQVVRLDDCGLTEARCKDISSALRVNPALAELNLRSNELGDVGVHCVLQGLQTPSCKIQKLSLQNCCLTGAGCGVLSSTLRTLPTLQELHLSDNLLGDAGLQLLCEGLLDPQCRLEKLQLEYCSLSAASCEPLASVLRAKPDFKELTVSNNDINEAGVRVLCQGLKDSPCQLEALKLESCGVTSDNCRDLCGIVASKASLRELALGSNKLGDVGMAELCPGLLHPSSRLRTLWIWECGITAKGCGDLCRVLRAKESLKELSLAGNELGDEGARLLCETLLEPGCQLESLWVKSCSFTAACCSHFSSVLAQNRFLLELQISNNRLEDAGVRELCQGLGQPGSVLRVLWLADCDVSDSSCSSLAATLLANHSLRELDLSNNCLGDAGILQLVESVRQPGCLLEQLVLYDIYWSEEMEDRLQALEKDKPSLRVIS
# B2: Migration and invasion-inhibitory protein (Homo sapiens), Q5JXC2 (parent)
# chain: MVEAEELAQLRLLNLELLRQLWVGQDAVRRSVARAASESSLESSSSYNSETPSTPETSSTSLSTSCPRGRSSVWGPPDACRGDLRDVARSGVASLPPAKCQHQESLGRPRPHSAPSLGTSSLRDPEPSGRLGDPGPQEAQTPRSILAQQSKLSKPRVTFSEESAVPKRSWRLRPYLGYDWIAGSLDTSSSITSQPEAFFSKLQEFRETNKEECICSHPEPQLPGLRESSGSGVEEDHECVYCYRVNRRLFPVPVDPGTPCRLCRTPRDQQGPGTLAQPAHVRVSIPLSILEPPHRYHIHRRKSFDASDTLALPRHCLLGWDIFPPKSEKSSAPRNLDLWSSVSAEAQHQKLSGTSSPFHPASPMQMLPPTPTWSVPQVPRPHVPRQKP
# partner: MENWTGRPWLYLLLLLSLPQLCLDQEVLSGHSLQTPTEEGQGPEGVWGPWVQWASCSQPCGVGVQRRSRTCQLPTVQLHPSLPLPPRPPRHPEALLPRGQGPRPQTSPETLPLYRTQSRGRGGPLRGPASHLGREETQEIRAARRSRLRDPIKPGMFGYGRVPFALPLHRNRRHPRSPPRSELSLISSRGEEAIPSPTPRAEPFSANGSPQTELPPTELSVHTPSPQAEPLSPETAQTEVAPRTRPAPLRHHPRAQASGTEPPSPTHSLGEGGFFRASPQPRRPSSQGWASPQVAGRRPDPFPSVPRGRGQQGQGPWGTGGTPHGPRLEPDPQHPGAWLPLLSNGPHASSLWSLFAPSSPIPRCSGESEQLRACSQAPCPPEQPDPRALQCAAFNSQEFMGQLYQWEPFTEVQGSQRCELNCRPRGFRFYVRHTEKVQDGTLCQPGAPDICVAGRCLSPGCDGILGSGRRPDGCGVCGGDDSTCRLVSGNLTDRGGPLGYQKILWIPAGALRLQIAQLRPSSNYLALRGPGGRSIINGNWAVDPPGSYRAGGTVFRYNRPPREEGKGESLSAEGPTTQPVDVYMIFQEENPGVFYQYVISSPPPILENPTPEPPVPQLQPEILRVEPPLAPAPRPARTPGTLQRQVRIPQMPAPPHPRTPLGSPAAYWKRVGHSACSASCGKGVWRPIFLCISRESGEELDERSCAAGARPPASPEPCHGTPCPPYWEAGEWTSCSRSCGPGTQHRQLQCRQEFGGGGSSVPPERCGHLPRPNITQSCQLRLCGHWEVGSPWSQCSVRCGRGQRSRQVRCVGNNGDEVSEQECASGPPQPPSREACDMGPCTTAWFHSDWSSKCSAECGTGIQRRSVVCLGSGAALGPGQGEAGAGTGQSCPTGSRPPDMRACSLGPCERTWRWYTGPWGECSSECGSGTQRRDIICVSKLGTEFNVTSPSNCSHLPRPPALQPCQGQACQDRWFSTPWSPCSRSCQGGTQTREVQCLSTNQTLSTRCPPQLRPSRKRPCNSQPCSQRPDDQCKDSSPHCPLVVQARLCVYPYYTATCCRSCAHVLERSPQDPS
# B3: Defensin-6 (Homo sapiens), Q01524 (parent)
# chain: MRTLTILTAVLLVALQAKAEPLQAEDDPLQAKAYEADAQEQRGANDQDFAVSFAEDASSSLRALGSTRAFTCHCRRSCYSTEYSYGTCTVMGINHRFCCL
# B4: Protein LDOC1 (Homo sapiens), O95751 (parent)
# chain: MVDELVLLLHALLMRHRALSIENSQLMEQLRLLVCERASLLRQVRPPSCPVPFPETFNGESSRLPEFIVQTASYMLVNENRFCNDAMKVAFLISLLTGEAEEWVVPYIEMDSPILGDYRAFLDEMKQCFGWDDDEDDDDEEEEDDY
# partner: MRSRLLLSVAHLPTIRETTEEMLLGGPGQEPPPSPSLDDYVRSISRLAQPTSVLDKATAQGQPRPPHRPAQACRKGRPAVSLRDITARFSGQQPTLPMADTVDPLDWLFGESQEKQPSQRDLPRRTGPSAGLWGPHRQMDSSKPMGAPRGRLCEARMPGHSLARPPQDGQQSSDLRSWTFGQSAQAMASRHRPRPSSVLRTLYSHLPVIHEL
# B5: Annexin A10 (Homo sapiens), Q9UJ72 (parent)
# chain: MFCGDYVQGTIFPAPNFNPIMDAQMLGGALQGFDCDKDMLINILTQRCNAQRMMIAEAYQSMYGRDLIGDMREQLSDHFKDVMAGLMYPPPLYDAHELWHAMKGVGTDENCLIEILASRTNGEIFQMREAYCLQYSNNLQEDIYSETSGHFRDTLMNLVQGTREEGYTDPAMAAQDAMVLWEACQQKTGEHKTMLQMILCNKSYQQLRLVFQEFQNISGQDMVDAINECYDGYFQELLVAIVLCVRDKPAYFAYRLYSAIHDFGFHNKTVIRILIARSEIDLLTIRKRYKERYGKSLFHDIRNFASGHYKKALLAICAGDAEDY
# partner: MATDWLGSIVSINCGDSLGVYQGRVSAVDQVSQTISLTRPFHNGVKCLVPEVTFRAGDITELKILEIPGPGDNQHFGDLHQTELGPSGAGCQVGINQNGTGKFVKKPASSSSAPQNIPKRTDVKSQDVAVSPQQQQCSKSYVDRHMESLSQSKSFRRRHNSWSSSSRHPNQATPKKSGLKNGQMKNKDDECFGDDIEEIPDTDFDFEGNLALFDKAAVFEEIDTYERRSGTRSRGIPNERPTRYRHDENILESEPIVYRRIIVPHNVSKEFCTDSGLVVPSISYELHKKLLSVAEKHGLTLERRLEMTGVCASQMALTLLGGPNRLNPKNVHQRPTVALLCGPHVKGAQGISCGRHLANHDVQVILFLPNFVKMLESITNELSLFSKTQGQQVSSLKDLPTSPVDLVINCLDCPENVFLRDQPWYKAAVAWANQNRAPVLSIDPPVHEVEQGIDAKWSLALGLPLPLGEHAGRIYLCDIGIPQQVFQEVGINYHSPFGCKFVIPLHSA
# Variants of: B1
# Settings: with sdcb1_human SDCBP
row,Variant,effect of a mutation on the interaction
1,R110C,disrupting interaction strength

# Variants of: B2
# Settings: with atl4_human ADAMTSL4, Q6UY14
row,Variant,effect of a mutation on the interaction
1,R171C,with no effect

# Variants of: B3
# Settings: with ubql1_human UBQLN1, Q9UMX0
# Sequence of ubql1_human UBQLN1, Q9UMX0 (Q9UMX0 whole entry): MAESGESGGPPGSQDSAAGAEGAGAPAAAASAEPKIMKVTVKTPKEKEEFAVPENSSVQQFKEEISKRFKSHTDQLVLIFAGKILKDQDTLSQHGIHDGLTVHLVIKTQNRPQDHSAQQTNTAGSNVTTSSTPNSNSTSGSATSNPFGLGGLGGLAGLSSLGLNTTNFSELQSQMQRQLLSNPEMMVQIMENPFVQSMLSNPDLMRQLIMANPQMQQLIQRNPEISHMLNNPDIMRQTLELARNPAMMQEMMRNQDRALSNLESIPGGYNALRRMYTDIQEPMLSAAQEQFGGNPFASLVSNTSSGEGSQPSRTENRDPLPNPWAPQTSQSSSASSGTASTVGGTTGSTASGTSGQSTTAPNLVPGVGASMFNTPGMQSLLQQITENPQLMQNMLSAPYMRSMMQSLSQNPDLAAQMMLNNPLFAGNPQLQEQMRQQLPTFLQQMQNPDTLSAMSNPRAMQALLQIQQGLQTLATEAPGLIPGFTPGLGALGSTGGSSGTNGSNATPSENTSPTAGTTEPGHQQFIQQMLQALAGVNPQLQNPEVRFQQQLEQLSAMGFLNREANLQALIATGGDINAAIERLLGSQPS
row,Variant,effect of a mutation on the interaction
1,D46E,with no effect
2,E35D,with no effect

# Variants of: B4
# Settings: with depp1_human DEPP1, Q9NTK1
row,Variant,effect of a mutation on the interaction
1,L12H,disrupting interaction strength

# Variants of: B5
# Settings: with edc3_human EDC3, Q96F86
row,Variant,effect of a mutation on the interaction
1,F234S,with no effect
